Target: CMV gB ectodomain protein (human cytomegalovirus) (UniProt P13201)

B1: TRL345 (antibody, V domains shown)
VH: QVQLVESGGGVVQPGRSLRLSCAASGFTFSDYNMHWVRQAPGKGLEWVAVISIDGTYKYSADSVAGRFSLSRDNSKNTLYLQMNSLRPDDTAIYYCARDGRSVGGFSGILDPWGQGTLVTVSS
VL: EIVMTQSPATLSLSPGDRATLSCRASQSVGSYLAWYQQKPGQAPRLLMYDSSVRATGIPARFSGSGSGTDFTLTISSLEPEDFAVYYCQQRNNWPPLTFGGGTKVEIK
  neutralization of CMV strain AD169rUL131-GFP on ARPE epithelial cells, IC50: 0.3 µg/mL
  neutralization of CMV strain AD169rUL131-GFP on MRC-5 fibroblasts, IC50: 0.24 µg/mL
  neutralization of CMV strain Toledo on MRC-5 fibroblasts, IC50: 0.19 µg/mL
  neutralization of CMV strain Towne on MRC-5 fibroblasts, IC50: 0.21 µg/mL
